To fix the notation:
T1: PUF4 RNA-binding domain (Saccharomyces cerevisiae, UniProt P25339 537-888)
T1 sequence: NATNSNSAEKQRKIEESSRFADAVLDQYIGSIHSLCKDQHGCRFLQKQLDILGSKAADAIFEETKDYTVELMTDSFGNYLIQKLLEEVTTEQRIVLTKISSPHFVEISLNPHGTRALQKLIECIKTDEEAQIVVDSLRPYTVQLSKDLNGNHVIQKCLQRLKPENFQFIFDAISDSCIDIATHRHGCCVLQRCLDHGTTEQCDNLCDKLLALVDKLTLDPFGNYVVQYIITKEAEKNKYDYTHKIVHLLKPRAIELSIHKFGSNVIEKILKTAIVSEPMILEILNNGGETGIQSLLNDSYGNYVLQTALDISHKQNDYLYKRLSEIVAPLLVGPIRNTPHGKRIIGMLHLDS

A value given as a limit tells only on which side of the number the result lay.

The series addresses T1, PUF4 RNA-binding domain. The series can be described thus: Mg; RNA-MaP; 20 mM Na-HEPES pH 7.4, 30 mM KOAc, 0.75 mM MgCl2, 0.1% Tween-20, 5% glycerol, 0.1 mg/mL BSA, 2 mM DTT; 25 C; 0.0125-409.6 nM protein. To be noted: tags: N-His6-TEV cleaved; C-SNAP kept, Cy3B-labelled; label: tethered on chip by stalled RNA polymerase.
Usually Kd stands for the concentration at which binding is half-saturated. Higher therefore signals a looser complex. ACAAACUUACACUAUUAGAACAAAC (ssRNA) [Id_ii_S3_P4E.4_K4.3_C4.2_[C-2T]_H4.3_A4.1_F4.1_T4.2_[T11A]] gave a Kd greater than 2300 nM.
With ACAAACGCACACUAUUACUACAAAC (ssRNA) [Id_ii_S3_P4E.4_K4.3_C4.2_[C-2G]_[T-1C]_H4.3_A4.1_F4.1_T4.2_[G10C]] the figure was greater than 2300 nM.
Next, UCUCUUUGUAUUUUUCUCUCUU (ssRNA) [Ib_S1_P5E.1_K5.1_C5.1_H5.1_A5.1_[A7T]_F5.1_[A10C]_T5.1]: 23.8 nM.
With ACAAACUCACACUAUUAACACAAAC (ssRNA) [Id_ii_S3_P4E.4_K4.3_C4.2_[C-2T]_[T-1C]_H4.3_A4.1_F4.1_T4.2_[G10A]_[T11C]] the figure was greater than 2300 nM.
As to ACAAACUCACACUAUUAUUACAAAC (ssRNA) [Id_ii_S3_P4E.4_K4.3_C4.2_[C-2T]_[T-1C]_H4.3_A4.1_F4.1_T4.2_[G10T]], the dissociation constant Kd was greater than 2300 nM.
Next, ACAAACGUACACUAUUAUCACAAAC (ssRNA) [Id_ii_S3_P4E.4_K4.3_C4.2_[C-2G]_H4.3_A4.1_F4.1_T4.2_[G10T]_[T11C]]: 39.9 nM.
Consider ACAAACCCACACUAUUAAGACAAAC (ssRNA) [Id_ii_S3_P4E.4_K4.3_C4.2_[T-1C]_H4.3_A4.1_F4.1_T4.2_[G10A]_[T11G]], for which the Kd is greater than 2300 nM.
With UCUCUUUGUAUUGUUCUCUCUU (ssRNA) [Ib_S1_P5E.1_K5.1_C5.1_H5.1_A5.1_[A7G]_F5.1_[A10C]_T5.1] the figure was 45.8 nM; with ACAAACAAACACUAUUACCACAAAC (ssRNA) [Id_ii_S3_P4E.4_K4.3_C4.2_[C-2A]_[T-1A]_H4.3_A4.1_F4.1_T4.2_[G10C]_[T11C]], greater than 2300 nM; with ACAAACUCACACUAUUAGUACAAAC (ssRNA) [Id_ii_S3_P4E.4_K4.3_C4.2_[C-2T]_[T-1C]_H4.3_A4.1_F4.1_T4.2], greater than 2300 nM.
With ACAAACACACACUAUUACUACAAAC (ssRNA) [Id_ii_S3_P4E.4_K4.3_C4.2_[C-2A]_[T-1C]_H4.3_A4.1_F4.1_T4.2_[G10C]] the figure was greater than 2300 nM; with ACAAACAAACACUAUUAACACAAAC (ssRNA) [Id_ii_S3_P4E.4_K4.3_C4.2_[C-2A]_[T-1A]_H4.3_A4.1_F4.1_T4.2_[G10A]_[T11C]], greater than 2300 nM.
UCUCUUUGUAUUGUUUUCUCUU (ssRNA) [Ic_S1_P5E.1_K5.1_C5.1_H5.1_A5.1_[A7G]_F5.1_[A10T]_T5.1] gave an equilibrium dissociation constant (Kd) of 42.9 nM.
In turn, ACAAACAUACACUAUUAAAACAAAC (ssRNA) [Id_ii_S3_P4E.4_K4.3_C4.2_[C-2A]_H4.3_A4.1_F4.1_T4.2_[G10A]_[T11A]] showed a Kd of 1130 nM.
With ACAAACCAACACUAUUACGACAAAC (ssRNA) [Id_ii_S3_P4E.4_K4.3_C4.2_[T-1A]_H4.3_A4.1_F4.1_T4.2_[G10C]_[T11G]] the figure was greater than 2300 nM.
With UCUCUUUGUAUUCUUUUCUCUU (ssRNA) [Ic_S1_P5E.1_K5.1_C5.1_H5.1_A5.1_[A7C]_F5.1_[A10T]_T5.1] the figure was 28.6 nM; with ACAAACGUACACUAUUAGCACAAAC (ssRNA) [Id_ii_S3_P4E.4_K4.3_C4.2_[C-2G]_H4.3_A4.1_F4.1_T4.2_[T11C]], 70.4 nM.
Next, ACAAACCGACACUAUUAAAACAAAC (ssRNA) [Id_ii_S3_P4E.4_K4.3_C4.2_[T-1G]_H4.3_A4.1_F4.1_T4.2_[G10A]_[T11A]]: greater than 2300 nM; ACAAACCUUAUAUAUUACUACAAAC (ssRNA) [Id_ii_S3_P4E.3_K4.2_C4.2_H4.2_A4.1_F4.1_T4.2_[G10C]]: 13.3 nM; ACAAACCCACACUAUUACCACAAAC (ssRNA) [Id_ii_S3_P4E.4_K4.3_C4.2_[T-1C]_H4.3_A4.1_F4.1_T4.2_[G10C]_[T11C]]: greater than 2300 nM.
In the case of ACAAACAUACACUAUUAUAACAAAC (ssRNA) [Id_ii_S3_P4E.4_K4.3_C4.2_[C-2A]_H4.3_A4.1_F4.1_T4.2_[G10T]_[T11A]], the dissociation constant Kd came to 902 nM.
Next, ACAAACAAACACUAUUAGCACAAAC (ssRNA) [Id_ii_S3_P4E.4_K4.3_C4.2_[C-2A]_[T-1A]_H4.3_A4.1_F4.1_T4.2_[T11C]]: greater than 2300 nM; ACAAACAUACACUAUUAAUACAAAC (ssRNA) [Id_ii_S3_P4E.4_K4.3_C4.2_[C-2A]_H4.3_A4.1_F4.1_T4.2_[G10A]]: 740 nM; ACAAACAUACACUAUUAUUACAAAC (ssRNA) [Id_ii_S3_P4E.4_K4.3_C4.2_[C-2A]_H4.3_A4.1_F4.1_T4.2_[G10T]]: 600 nM.
ACAAACUAACACUAUUACGACAAAC (ssRNA) [Id_ii_S3_P4E.4_K4.3_C4.2_[C-2T]_[T-1A]_H4.3_A4.1_F4.1_T4.2_[G10C]_[T11G]] registered an equilibrium dissociation constant (Kd) greater than 2300 nM.
With ACAAACUGACACUAUUAACACAAAC (ssRNA) [Id_ii_S3_P4E.4_K4.3_C4.2_[C-2T]_[T-1G]_H4.3_A4.1_F4.1_T4.2_[G10A]_[T11C]] the figure was greater than 2300 nM; with ACAAACUGACACUAUUACGACAAAC (ssRNA) [Id_ii_S3_P4E.4_K4.3_C4.2_[C-2T]_[T-1G]_H4.3_A4.1_F4.1_T4.2_[G10C]_[T11G]], greater than 2300 nM; with ACAAACUCACACUAUUAAAACAAAC (ssRNA) [Id_ii_S3_P4E.4_K4.3_C4.2_[C-2T]_[T-1C]_H4.3_A4.1_F4.1_T4.2_[G10A]_[T11A]], greater than 2300 nM.
Next, ACAAACCGACACUAUUAUUACAAAC (ssRNA) [Id_ii_S3_P4E.4_K4.3_C4.2_[T-1G]_H4.3_A4.1_F4.1_T4.2_[G10T]]: greater than 2300 nM; ACAAACUGACACUAUUAUCACAAAC (ssRNA) [Id_ii_S3_P4E.4_K4.3_C4.2_[C-2T]_[T-1G]_H4.3_A4.1_F4.1_T4.2_[G10T]_[T11C]]: greater than 2300 nM; ACAAACGUACACUAUUAACACAAAC (ssRNA) [Id_ii_S3_P4E.4_K4.3_C4.2_[C-2G]_H4.3_A4.1_F4.1_T4.2_[G10A]_[T11C]]: 39.8 nM.
For the molecule ACAAACCUUAUAUAUUAACACAAAC (ssRNA) [Id_ii_S3_P4E.3_K4.2_C4.2_H4.2_A4.1_F4.1_T4.2_[G10A]_[T11C]], binding was characterised by a dissociation constant (Kd) of 21.6 nM.
Next, ACAAACCCACACUAUUAACACAAAC (ssRNA) [Id_ii_S3_P4E.4_K4.3_C4.2_[T-1C]_H4.3_A4.1_F4.1_T4.2_[G10A]_[T11C]]: greater than 2300 nM; ACAAACAUACACUAUUAACACAAAC (ssRNA) [Id_ii_S3_P4E.4_K4.3_C4.2_[C-2A]_H4.3_A4.1_F4.1_T4.2_[G10A]_[T11C]]: 1470 nM; ACAAACCCACACUAUUAAAACAAAC (ssRNA) [Id_ii_S3_P4E.4_K4.3_C4.2_[T-1C]_H4.3_A4.1_F4.1_T4.2_[G10A]_[T11A]]: greater than 2300 nM.
Next, ACAAACAAACACUAUUAAGACAAAC (ssRNA) [Id_ii_S3_P4E.4_K4.3_C4.2_[C-2A]_[T-1A]_H4.3_A4.1_F4.1_T4.2_[G10A]_[T11G]]: greater than 2300 nM; ACAAACCGACACUAUUACCACAAAC (ssRNA) [Id_ii_S3_P4E.4_K4.3_C4.2_[T-1G]_H4.3_A4.1_F4.1_T4.2_[G10C]_[T11C]]: greater than 2300 nM.
Next, ACAAACGCACACUAUUAGAACAAAC (ssRNA) [Id_ii_S3_P4E.4_K4.3_C4.2_[C-2G]_[T-1C]_H4.3_A4.1_F4.1_T4.2_[T11A]]: greater than 2300 nM.
ACAAACAUACACUAUUACCACAAAC (ssRNA) [Id_ii_S3_P4E.4_K4.3_C4.2_[C-2A]_H4.3_A4.1_F4.1_T4.2_[G10C]_[T11C]] registered a Kd of 740 nM.
With ACAAACACACACUAUUAACACAAAC (ssRNA) [Id_ii_S3_P4E.4_K4.3_C4.2_[C-2A]_[T-1C]_H4.3_A4.1_F4.1_T4.2_[G10A]_[T11C]] the figure was greater than 2300 nM; with UCUCUUUGUAUUCUUCUCUCUU (ssRNA) [Ib_S1_P5E.1_K5.1_C5.1_H5.1_A5.1_[A7C]_F5.1_[A10C]_T5.1], 36.4 nM; with ACAAACACACACUAUUAUUACAAAC (ssRNA) [Id_ii_S3_P4E.4_K4.3_C4.2_[C-2A]_[T-1C]_H4.3_A4.1_F4.1_T4.2_[G10T]], greater than 2300 nM.
Next, ACAAACCAACACUAUUACUACAAAC (ssRNA) [Id_ii_S3_P4E.4_K4.3_C4.2_[T-1A]_H4.3_A4.1_F4.1_T4.2_[G10C]]: greater than 2300 nM; ACAAACAAACACUAUUAUGACAAAC (ssRNA) [Id_ii_S3_P4E.4_K4.3_C4.2_[C-2A]_[T-1A]_H4.3_A4.1_F4.1_T4.2_[G10T]_[T11G]]: greater than 2300 nM; ACAAACCGACACUAUUAACACAAAC (ssRNA) [Id_ii_S3_P4E.4_K4.3_C4.2_[T-1G]_H4.3_A4.1_F4.1_T4.2_[G10A]_[T11C]]: greater than 2300 nM.
The molecule ACAAACAGACACUAUUAGAACAAAC (ssRNA) [Id_ii_S3_P4E.4_K4.3_C4.2_[C-2A]_[T-1G]_H4.3_A4.1_F4.1_T4.2_[T11A]] came in with a Kd greater than 2300 nM.
With ACAAACAUACACUAUUAGAACAAAC (ssRNA) [Id_ii_S3_P4E.4_K4.3_C4.2_[C-2A]_H4.3_A4.1_F4.1_T4.2_[T11A]] the figure was 846 nM; with ACAAACACACACUAUUAGCACAAAC (ssRNA) [Id_ii_S3_P4E.4_K4.3_C4.2_[C-2A]_[T-1C]_H4.3_A4.1_F4.1_T4.2_[T11C]], greater than 2300 nM; with ACAAACCCACACUAUUAAUACAAAC (ssRNA) [Id_ii_S3_P4E.4_K4.3_C4.2_[T-1C]_H4.3_A4.1_F4.1_T4.2_[G10A]], greater than 2300 nM.
With ACAAACCGACACUAUUAUGACAAAC (ssRNA) [Id_ii_S3_P4E.4_K4.3_C4.2_[T-1G]_H4.3_A4.1_F4.1_T4.2_[G10T]_[T11G]] the figure was greater than 2300 nM.
Next, ACAAACUUACACUAUUAUAACAAAC (ssRNA) [Id_ii_S3_P4E.4_K4.3_C4.2_[C-2T]_H4.3_A4.1_F4.1_T4.2_[G10T]_[T11A]]: 1640 nM.
In turn, ACAAACUGACACUAUUAUGACAAAC (ssRNA) [Id_ii_S3_P4E.4_K4.3_C4.2_[C-2T]_[T-1G]_H4.3_A4.1_F4.1_T4.2_[G10T]_[T11G]] came in with a Kd greater than 2300 nM.
As for ACAAACUCACACUAUUAAGACAAAC (ssRNA) [Id_ii_S3_P4E.4_K4.3_C4.2_[C-2T]_[T-1C]_H4.3_A4.1_F4.1_T4.2_[G10A]_[T11G]], the Kd was greater than 2300 nM.
Consider ACAAACUUACACUAUUAAAACAAAC (ssRNA) [Id_ii_S3_P4E.4_K4.3_C4.2_[C-2T]_H4.3_A4.1_F4.1_T4.2_[G10A]_[T11A]], for which the dissociation constant Kd is greater than 2300 nM.
The molecule ACAAACCAUAUAUAUUACCACAAAC (ssRNA) [Id_ii_S3_P4E.3_K4.2_C4.2_[T-1A]_H4.2_A4.1_F4.1_T4.2_[G10C]_[T11C]] showed a Kd of 32.1 nM.
Consider ACAAACCUUAUAUAUUAAUACAAAC (ssRNA) [Id_ii_S3_P4E.3_K4.2_C4.2_H4.2_A4.1_F4.1_T4.2_[G10A]], for which the affinity, expressed as Kd, was 14 nM.
In turn, ACAAACCUUAUAUAUUAGUACAAAC (ssRNA) [If_S3_P4E.3_K4.2_C4.2_H4.2_A4.1_F4.1_T4.2] displayed a Kd of 3.71 nM.
